In US20230074436A1 (DENALI THERAPEUTICS, published 2023):
Numbering of substitutions follows the chain as printed.

B1: HC2_LC2 (antibody, V domains shown)
VH: EVQLVESGGGLVQPGGSLRLSCAASGFTFSNAAMYWVRQAPGKGLELVSRIRTKPNNYATYHADSVKGRFTISRDNSKNTLYLQMNSLRAEDTAVYYCTADMATGDYWGQGTLVTVSS
VL: DIQMTQSPSSLSASVGDRVTITCKASQNINKNLDWYQQKPGKAPKPLIYSTNNLQTGVPSRFSGSGSGTDFTLTISSLQPEDFATYYCYQYKSAWTFGQGTKVEIK
notes: humanized 20H4 IgG
B2: HC2_LC1 (antibody, V domains shown)
VH: B1 VH
VL: B1 VL with P46L
notes: humanized 20H4 IgG
B3: HC2_LC3 (antibody, V domains shown)
VH: B1 VH
VL: B1 VL with F71Y
notes: humanized 20H4 IgG
B4: HC3_LC1 (antibody, V domains shown)
VH: B1 VH with L81V
VL: B1 VL with P46L
notes: humanized 20H4 IgG
B5: HC3_LC2 (antibody, V domains shown)
VH: B1 VH with L81V
VL: B1 VL
notes: humanized 20H4 IgG
B6: HC3_LC3 (antibody, V domains shown)
VH: B1 VH with L81V
VL: B1 VL with F71Y
notes: humanized 20H4 IgG
B7: HC5_LC1 (antibody, V domains shown)
VH: B1 VH with V48L, S49A, N76D, L81V
VL: B1 VL with P46L
notes: humanized 20H4 IgG
B8: HC5_LC2 (antibody, V domains shown)
VH: B1 VH with V48L, S49A, N76D, L81V
VL: B1 VL
notes: humanized 20H4 IgG
B9: HC5_LC3 (antibody, V domains shown)
VH: B1 VH with V48L, S49A, N76D, L81V
VL: B1 VL with F71Y
notes: humanized 20H4 IgG
B10: Chimeric 20H4 (antibody, human IgG1, kappa, V domains shown)
VH: AVQLVESGGGLVQPKESLKISCAASGFTFSNAAMYWVRQAPGKGLELLARIRTKPNNYATYHADSVKGRFTISRDDSQSMVYLHMGNLKTEDTAMYYCTADMATGDYWGPGVMVTVSS
VL: DIQMTQSPPVLSVSVGDRVTLSCKASQNINKNLDWYQQKHGEAPKPLIYSTNNLQTGVPSRFSGSGSGTDYTLTISSLQPEDVATYYCYQYKSAWTFGGGTKLELRR
notes: also called Chi 20H4; chimeric 20H4 control
B11: HC2_LC4 (antibody, V domains shown)
VH: B1 VH
VL: EIVMTQSPATLSLSPGERATLSCKASQNINKNLDWYQQKPGQAPRLLIYSTNNLQTGIPARFSGSGSGTDFTLTISSLQPEDFAVYYCYQYKSAWTFGQGTKVEIK
notes: humanized 20H4 IgG
B12: HC2_LC5 (antibody, V domains shown)
VH: B1 VH
VL: B11 VL with L46P
notes: humanized 20H4 IgG
B13: HC2_LC6 (antibody, V domains shown)
VH: B1 VH
VL: B11 VL with L46P, I58V, F71Y
notes: humanized 20H4 IgG
B14: HC3_LC4 (antibody, V domains shown)
VH: B1 VH with L81V
VL: B11 VL
notes: humanized 20H4 IgG
B15: HC3_LC5 (antibody, V domains shown)
VH: B1 VH with L81V
VL: B11 VL with L46P
notes: humanized 20H4 IgG
B16: HC3_LC6 (antibody, V domains shown)
VH: B1 VH with L81V
VL: B11 VL with L46P, I58V, F71Y
notes: humanized 20H4 IgG
B17: HC5_LC4 (antibody, V domains shown)
VH: B1 VH with V48L, S49A, N76D, L81V
VL: B11 VL
notes: humanized 20H4 IgG
B18: HC5_LC5 (antibody, V domains shown)
VH: B1 VH with V48L, S49A, N76D, L81V
VL: B11 VL with L46P
notes: humanized 20H4 IgG
B19: HC5_LC6 (antibody, V domains shown)
VH: B1 VH with V48L, S49A, N76D, L81V
VL: B11 VL with L46P, I58V, F71Y
notes: humanized 20H4 IgG
B20: HC6_LC_k3_5 (antibody, V domains shown)
VH: B1 VH with N76D
VL: B11 VL with N32Q, L46P, Q55K
B21: HC6_LC_k3_6 (antibody, V domains shown)
VH: B1 VH with N76D
VL: B11 VL with Q27A, N32Q, L46P, Q55K
B22: HC6_LC_k3_7 (antibody, V domains shown)
VH: B1 VH with N76D
VL: B11 VL with N30S, K31N, N32Y, L46P, Q55K
B23: HC6_LC_k3_8 (antibody, V domains shown)
VH: B1 VH with N76D
VL: B11 VL with N28G, N30S, K31N, N32Y, L46P, Q55K
B24: HC6_LC_k3_9 (antibody, V domains shown)
VH: B1 VH with N76D
VL: B11 VL with N28G, N30S, K31N, N32Y, D34A, L46P, Q55K
B25: HC6_LC_k3_10 (antibody, V domains shown)
VH: B1 VH with N76D
VL: B11 VL with N30S, K31N, N32D, L46P, Q55K
B26: HC6_LC_k3_11 (antibody, V domains shown)
VH: B1 VH with N76D
VL: B11 VL with N30S, K31N, N32Q, L46P, Q55K
B27: HC6_LC_k3_12 (antibody, V domains shown)
VH: B1 VH with N76D
VL: B11 VL with K31D, L46P, Q55K
B28: HC6_LC_k3_13 (antibody, V domains shown)
VH: B1 VH with N76D
VL: B11 VL with K31A, L46P, Q55K

Molecular target: T1, human alpha-synuclein monomer (human, UniProt P37840 1-140)
Assay: SPR (Biacore 8K), IgG captured on anti-human Fc, aSyn monomer injected
Description: (§1) Serial 3-fold dilutions of aSyn were injected at a flow rate of 30 μL/min. Each sample was analyzed using a 3-minute association and a 10-minute dissociation. After each injection, the chip was regenerated using 3 M MgCl₂. Binding response was corrected by subtracting the RU from a flow cell capturing an irrelevant IgG at similar density. A 1:1 Languir model of simultaneous fitting of kₒₙ and koff was used for kinetics analysis.

Binder	Kd [nM]
B1	2.33
B2	3.21
B3	6.59
B4	2.12
B5	1.63
B6	5.2
B7	1.97
B8	1.56
B9	5.17
B10	2.96
B11	9.78
B12	4.11
B13	5.27
B14	9.08
B15	2.4
B16	2.74
B17	8.48
B18	2.46
B19	2.78

Molecular target: T1, human alpha-synuclein monomer
Assay: as above
Remark: another data set of the same source
Description: as §1

Binder	Kd [nM]
B1	3.95

Molecular target: T1, human alpha-synuclein monomer
Assay: as above
Remark: another data set of the same source
Description: as §1

Binder	Kd [nM]
B20	0.21
B21	0.14
B22	0.22
B23	0.22
B24	0.17
B25	0.17
B26	0.24
B27	0.15
B28	0.17
